Among the data in publication doi:10.1101/2022.01.13.476167v2 are Km and kcat values, retold here.

Substrate in data set [1]: CCCCCC(=O)N[C@H]1CCOC1=O
Briefly: purified protein. The settings on record: 0.05 M phosphate buffer, pH 7.0, 35 °C.

Substrate in data set [2]: CCCCCCCC(=O)N[C@H]1CCOC1=O
Description: purified protein. As to conditions: 0.05 M phosphate buffer, pH 7.0, 35 °C.

B1: ecPGA (Escherichia coli penicillin G acylase) (Escherichia coli) (protein)
chain 1: EQSSSEIKIVRDEYGMPHIYANDTWHLFYGYGYVVAQDRLFQMEMARRSTQGTVAEVLGKDFVKFDKDIRRNYWPDAIRAQIAALSPEDMSILQGYADGMNAWIDKVNTNPETLLPKQFNTFGFTPKRWEPFDVAMIFVGTMANRFSDSTSEIDNLALLTALKDKYGVSQGMAVFNQLKWLVNPSAPTTIAVQESNYPLKFNQQNSQTA
chain 2: SNMWVIGKSKAQDAKAIMVNGPQFGWYAPAYTYGIGLHGAGYDVTGNTPFAYPGLVFGHNGVISWGSTAGFGDDVDIFAERLSAEKPGYYLHNGKWVKMLSREETITVKNGQAETFTVWRTVHGNILQTDQTTQTAYAKSRAWDGKEVASLLAWTHQMKAKNWQEWTQQAAKQALTINWYYADVNGNIGYVHTGAYPDRQSGHDPRLPVPGTGKWDWKGLLPFEMNPKVYNPQSGYIANWNNSPQKDYPASDLFAFLWGGADRVTEIDRLLEQKPRLTADQAWDVIRQTSRQDLNLRLFLPTLQAATSGLTQSDPRRQLVETLTRWDGINLLNDDGKTWQQPGSAILNVWLTSMLKRTVVAAVPMPFDKWYSASGYETTQDGPTGSLNISVGAKILYEAVQGDKSPIPQAVDLFAGKPQQEVVLAALEDTWETLSKRYGNNVSNWKTPAMALTFRANNFFGVPQAAAEETRHQAEYQNRGTENDMIVFSPTTSDRPVLAWDVVAPGQSGFIAPDGTVDKHYEDQLKMYENFGRKSLWLTKQDVEAHKESQEVLHVQR
Consider B1, for which, in data set [1], the Km (usually the substrate concentration at which the rate is half of its maximum) was 590 ± 70 µM; the kcat (in general, the number of substrate molecules converted per active site and unit of time at saturation) is 0.0090 ± 0.0003 s⁻¹. In data set [2], the Km was 700 ± 40 µM and the kcat was found to be 0.0085 ± 0.0003 s⁻¹.
